Data taken from a protein production outcome set (Wang et al. 2014).

Test: label from the status in PepcDB records

Sequence	protein production
GQRQPSEQELLFRQQALLLEQQRIHQLRNYQASMEAAGIPVSFGGHRPLSRAQSSPASATFPVSVQEPPTKPRFTTGLVYDTLMLKHQCTCGSSSSHPEHAGRIQSIWSRLQETGLRGKCECIRGRKATLEELQTVHSEAHTLLYGTNPLNRQKLDSKKLLGSLASVFVRLPCGGVGVDSDTIWNEVHSAGAARLAVGCVVELVFKVATGELKNGFAVVRPPGHHAEESTPMGFCYFNSVAVAAKLLQQRLSVSKILIVDWDVHHGNGTQQAFYSDPSVLYMSLHRYDDGNFFPGSGAPDEVGTGPGVGFNVNMAFTGGLDPPMGDAEYLAAFRTVVMPIASEFAPDVVLVSSGFDAVEGHPTPLGGYNLSARCFGYLTKQLMGLAGGRIVLALEGGHDLTAICDASEACVSALLGNELDPLPEKVLQQRPNANAVRSMEKVMEIHSKYWRCLQRTTSTAGRSLIEAQTCENEEAETVTAMASLSVGVKPA	failed
GQRVLFGSGEAAQNLAAEISRLDAKNVMVVAGDFELPMARQVAADIDVKVWHSNVVMHVPIETAEEARSVAKENDIDVVVCVGGGSTTGLAKAIAMTTALPIIAVPTTYAGSEATNVWGLTEAARKTTGVDNKVLPVTVIYDSALTMSLP	not failed
GQTCARPMCIPPSYADLGKAARDIFNKGFGFGLVKLDVKTKSCSGVEFSTSGSSNTDTGKVTGTLETKYKWCEYGLTFTEKWNTDNTLGTEIAIEDQICQGLKLTFDTTFSPNTGKKSGKIKSSYKRECINLGCDVDFDFAGPAIHGSAVFGYEGWLAGYQMTFDSAKSKLTRNNFAVGYRTGDFQLHTNVNDGTEFGGSIYQKVCEDLDTSVNLAWTSGTNCTRFGIAAKYQLDPTASISAKVNNSSLIGVGYTQTLRPGVKLTLSALVDGKSINAGGHKVGLALELEA	failed
GSPLLAPAFEPSLGPPPEGAPPTIEAWFSFRSPYSWLFMPRIRHLAQAYGATLELRPILPMVMRGLAVPRIKTIYITLDCKREAERVGLPFGRIVDPVGAGAERALAVLHHAMALGLGEQFAELGLKAAFADGIALAEDEGLYGVARRAGLTDAQTAAALADDSWRQRAETNRAALLEAGLWGAPTFRITGHQAHWGQDRLYMLEEDLRAAMQGAAAPR	failed
GSSGSSGDGTCTGAMPDGALDTAVCADEVGSEEDLYDDLHSSSHHYSHPGGGGEQLAINELISDGSVVCAEALWDHVTMDDQELGFKAGDVIEVMDATNREWWWGRVADGEGWFPASFVRLRVNQDEPADDDAPLAGNSGAEDGGAEAQSSKDQMRTNVINEILSTERDYIKHLRDICEGYVRQCRKRADMFSEEQLRTIFGNIEDIYRCQKAFVKALEQRFNRERPHLSELGACFLEHQADFQIYSEYCNNHPNACVELSRLTKLSKYVYFFEACRLLQKMIDISLDGFLLTPVQKICKYPLQLAELLKYTHPQHRDFKDVEAALHAMKNVAQLINERKRRLENIDKIAQWQSSIEDWEGEDLLVRSSELIYSGELTRVTQPQAKSQQRMFFLFDHQLIYCKKDLLRRDVLYYKGRLDMDGLEVVDLEDGKDRDLHVSIKNAFRLHRGATGDSHLLCTRKPEQKQRWLKAFAREREQVQLD	not failed
GSSGSSGDKKAYFYHSSFQILNVEYTEALNSPATHEYRTLSERIEAMITDEFRGSSLKSEFIRTHVVKLRKEGTGVVADVVMKFRSSKRNNRKVMKTRIQSVLRRLSSSGNLEIAPSNEITSLTDQDT	not failed
GSSGSSGMSNTTWGLQRDITPRLGARLVQEGNQLHYLADRASITGKFSDAECPKLDVVFPHFISQIESMLTTGELNPRHAQCVTLYHNGFTCEADTLGSCGYVYIAVYPTQR	not failed
GVPPSQGDLEYQMSTTARAKRVREAMCPGVSGEGQLALLATQVEGQATNLQRLAEPSQLLKSAIVHLINYQDDAELVTRALPELTKLLNDEDPVVVTKAAMIVNQLSKKEASRRALMGSPQLVAAVVRTMQNTSDLDTARCTTSILHNLSHHREGLLAIFKSGGIPALVRMLSSPVESVLFYAITTLHNLLLYQEGAKMACAGRRAQKMVPLLNKNNPKFLAITTDCLQLLAYGNQESKLIILANGGPQALVQIMRNYSYEKLLWTTSRVLKVLSVCPSNKPAIVEAGGMQALGKHLTSNSPRLVQNCLWTLRNLSDVATKQEGLESVLKILVNQLSVDDVNVLTCATGTLSNLTCNNSKNKTLVTQNSGVEALIHAILRAGDKDDITEPAVCALRHLTSRHPEAEMAQNSVRLNYGIPAIVKLLNQPNQWPLVKATIGLIRNLALCPANHAPLQEAAVIPRLVQLLVKAHQDAQRHVAAGTQQPYTDGVRMEEIVEGCTGALHILARDPMNRMEIFRLNTIPLFVQLLYSSVENIQRVAAGVLCEL	failed
GYRALSFPDPLDSQPVQAIAFYPSTGSEHLSIIHGYRVEASEDAPIAMGRFPLLLLSHGNTGTPLALHDLATSLARQGFVVVAVVHPGDNDRDHSRLGSLSNLYGRPLQISEAISTALLDPVLAPYLNARQ	not failed
HAATAAEPPTAPTPPTQPAEGPGGADYRHASVHQWHFGEGAREYWVFTPEQPVPGNAPLVIFLHGWSVMQPDLYRAWIDHIVRRGMVVVYPRYQPDLKTPNAAFLDNAAGALGDALRRLQAGELGVRPRLNQVAYLGHSAGGLLAANLAAASERLK	failed
HFLLPFAEIPEQFPASKAVLMEHFYRRMRKRFGYLMTADGKPEGGQWNFDADNRNKLKSPDLLQLPTPLCFDNPVASIKARIERHRIPSIGQVGESLLWPINRAQALSLLAHFCQICLPNFGRFQDAMTAQHPHRWSLYHSRLSFALNSKLLSPREVIEATISAYRAAQGQISLAQVEGFVRQILGWREYVRGMYWSN	failed
HFPARVKVEPAVDTSRIKVFGPGIEGKDVFREATTDFTVDSRPLTQVGGDHIKAHIANPSGASTECFVTDNADGTYQVEYTPFEKGLHVVEVTYDDVPIPNSPFKVAVTEGCQPS	not failed
HFPINTLLLMRATTGVQLRLPERFGEFLDCLFRALWVDKRNLNDPATITQVLEQGGFDPQQILDLSNDEEVKAALKDKTEQALQKGVFGAPSMFVGDELFFGQDRLDFVREALNA	failed
HGTGKQTNALADYWTSEFVNSVRQGIPVPNNYTVINCDFDQYMWEEAAAGCLATQLNSFIQAKNIDDLILLTHSNGGNVVRWILSNPTWDSRYPAVINATSKVIALAPSSGGTPLADAVNQGNVFETTLGWLLGYGSNAVKQQQVGWMAHYNNTWLFGTAGRPRLGKPFEVVVGSDVDSAIWDSDSYCAGYQYQVALETTQNWLDSCSDGFLNCSSQKAAGTVWFTDKQKTRGQEPLSHQQSRRACFNLDTL	failed
HIDLFDLDVEEPNDRIFIKGEAEEWPAYRKVPEVRENCNACGVCKDVCQYSAIYVIDKAYPLPELCHSCGACIYLCPEKAMEEVDYQTGKIVRVKSDITLTYGEMRIGEASAVFLIKQVKELMGKNAIIDSPPGASCPMVESVSDADYVILVAEPTPFGLHDLKIAAEVVSDLGLKFGVVVNKHGLPFDGIERYCKEGGVEILGKIPFSKEIAEKYSRGELLHDMKDFFVQLYEG	failed
HLHLRVKLLDNTMEIFDIEPKCDGQVLLTQVWKRLNLVECDYFGMEFQNTQSYWIWLEPMKPIIRQIRRPKNVVLRLAVK	failed
HPKLVSSTPAEGSEGAAPAKIELHFSENLVTQFSGAKLVMTAMPGMEHSPMAVKAAVSGGGDPKTMVITPASPLTAGTYKVDWRAVSSDTHPITGSVTFK	not failed
HPLLAGIPFRQLARPLMQDLAYSVRGTVSIGLLDGPSVVYVETARSGDVGPHTPDIGMPIPVVRTAMGRAAASTLPEAEAERLDRQLEAADGAMWASHRDLYRDGLRQCAERQFCTCFGDYLPAIHAVAAPLFRQRDRSFAINCGIPAFRLQPGQLEDEIGPRVRALAESIRALGVDPE	failed
HQPNIIPYHKGFYRAFSKLHTTTFKYQAQSPQDIIDSLDDHHHLFLFVSEGLLKGYLYLEIDSQQSIAEIKYFSSHVDYRLKGIAFELLAYALQYAFDNFDIRKVYFKIRNKNNKLIERFNGLGFHINYEYIKFKFESRNVKDQTIPE	failed
HVETIKNTFLNPKSNKVLVVAHRGNWRSAPENSTAAIDSAIAMKVDIVEIDIQKTKDGQLILMHDNTLDRTTTGKGEIKNWTLADIKKLKLKDKDGKVTNYVVPTLEEALLTAKGKIMVNLDKAYDIFDDVYAILEKTETQNQVIMKGGQPIETVKREFGSYLDKVLYMPVIDLGNKEAEKIITDYLKELRPAAFEIIYSDPKNPLPPKIKQLLFKKSLIWYNTLWGSLAGNHDDNLALTDPEKSYGYLIEQLGARILQTDQPAYLLDYLRKKGWHN	not failed
IAALSRDITPQQDGSVIVDASITIRHLNRMMGWSLPLIGPRTLSGLIIEHLGYIPPPDSCLVIDHYHIEILRVSDNMIRGVKMIKTN	failed
IDIEAMLGSVFDAMEPELDFTGEARNMDEARGQVRSFRSLEVPRVLHASPRVLVQSLADGKSVRHVDRAHFTDDERVEIGKDLLRFMYHGYFVHRFFHADPHAGNVFAAPGGPATLIDWGMVGRLD	failed
IDSGLSPSVLMASNSGRRSAPPLNLTGLPGTEKLNEKEKELCQVVRLVPGAYLEYKSALLNECHKQGGLRLAQARALIKIDVNKTRKIYDFLIREGYITKA	not failed
IEDCWLAYATAGTLNEDKSNAILIPTWYSGTHQTWFQQYIGTDHALDPSKYFIISINQIGNGLSVSPANTADDSISMSKFPNVRIGDDVVAQDRLLRQEFGITELFAVVGGSMGAQQTYEWIVRFPDQVHRAAPIAGTAKNTPHDFIFTQTLNETVEADPGFNGGEYSSHEEVADGLRRQSHLWAAMGFSTEFWKQEAWRRLGLESKESVLADFLDPLFMSMDPNTLLNNAWKWQHGDVSRHTGGDLAAALGRVKAKTFVMPISEDMFFPVRDCAAEQALIPGSELRVIEDIAGHLGLFNVSENYIPQIDKNLKE	failed
IFIGNLDPEIDEKLLYDTFSAFGVILQTPKIMRDPDTGNSKGYAFINFASFDASDAAIEAMNGQYLCNRPITVSYAFKKDSKG	not failed
IFLDSNMSLDVVWHVYSNMMSPEIEQFSNSVPKSPIRELLELEPETAKFGKPEKLADGRRVRVTVDVFCKGTFRGIGRNYRIAKCTAAKCALRQLKKQGLIAKKD	failed
IGNVQYYLGFNLYDSRTKITKYDNEVGLLGKDSDDNLIYRKGMELGEIWGYTTDRLYTTEDFDSQGKLKNNIPKVEGYNPNPGDILYVDFDGNGIINNGKNTSNEPGDTRIIGNDTRRYQYGIRGGATWKGISLSFILQGVGKRDLWLMNELFYPHYDAYSTLFDSQLNYWTPEHTNSYFPRLYEKAEGNTKANQKPQTRFLQNGAYLSIRNISLSYTFPIKLIKPLGITNLSVFFGGENLFTFDHLPKGIDAERVVTDNLGQRGFTYPYMRQFSFGINLSL	failed
IHFTTEVITSRIEPANRYVAEKLRITPGQDILYLERLRSIGDEKAMLIENRINIELCPGIVEIDFNQHNLFPTIESLSKRKIRYSESRYAARLIGNERGHFLDISEDAPVLHLEQLVFFSRELPVEFGNVWLKG	failed
IIAKKTNDIQQDIILHSEFANRHGLIAGATGTGKTVTLKVMAESFSRIGVPVFLADAKGDVSSIAKAGSDNPKFDARIKSLGIESIPFAASPTIFWDLFGEQGHPIRTTISEIGPLLLAQMLNLNDTQEGVLSALFRIADDQGLLLIDFKDLKAMLSYVSENAADLKAEYGNLSPASIGAIQRNLLALGDQGGEQFFGEPSLNILDFIQTDSNGHGYINVLAADKLMNTPKLYATFLLWMLSELFEQLPEVGDLDKPKLVFFFDEAHLLFDNASPALQQKIEQVVRLIRSKGVGIYFITQNPLDLPESVLGQLGNRVQHALRAFTPKDQKAVKTAADTFRANPEFKVDQAITELAVGEALISCLDEQGTPQIVERGWVMPPYSSFSPLSPQERQAFMAQSIVAGVYENAVDRDSAYEMLQRKVNESTAQQQAQAEAKQQEANAKQQAKEQERLAREQQKAEEKAQRDREKLTQDVIGTFAKSAARTLGGPTGQKLVRGLLGSLFGKR	failed
